Laboratory results published in article PMC8667043, “First-in-Class Inhibitors of the Ribosomal Oxygenase MINA53” (Journal of Medicinal Chemistry, 2021).

What was measured:
[1] = substrate: CC[C@H](C)[C@H](NC(=O)[C@H](CCCNC(=N)N)NC(=O)[C@H](Cc1c[nH]cn1)NC(=O)[C@H](Cc1c[nH]cn1)NC(=O)[C@H](Cc1c[nH]cn1)NC(=O)[C@H](CC(C)C)NC(=O)CNC(=O)CNC(=O)[C@H](C)NC(=O)[C@H](CC(N)=O)NC(=O)CNC(=O)[C@H](CCCNC(=N)N)NC(=O)CN)C(=O)N[C@@H](CC(N)=O)C(=O)N[C@@H](Cc1ccccc1)C(=O)N[C@@H](CC(=O)O)C(=O)N[C@@H](CCCCN)C(=O)N[C@@H](Cc1ccc(O)cc1)C(=O)N[C@@H](Cc1c[nH]cn1)C(=O)N1CCC[C@H]1C(=O)O; test: Determination of enzyme kinetic parameters (MS assay); assay type: biochemical; conditions: other: 2OG, Fe(II): MINA53 (Met26-Val464), n = 4; peptide: MINA53 (Met1-Val464), n = 3; means ± 95% confidence
Experimental: (§1) Assays were performed in a 96-well, 2 mL polypropylene plate (Greiner Bio-one). […] Ion chromatogram data for the Rpl27a (m/z +5 charge state) and Rpl8 substrates (m/z +4 charge state) were extracted, and the peak areas were integrated using RapidFire Integrator software (Agilent). The integrated peak areas were exported into Excel, and the percent hydroxylation was calculated. The initial rate slope for each peptide concentration was calculated using excel, and the data were fitted to the Michaelis–Menten equation using GraphPad prism 5.
(§2) The concentrations were prepared as an 8-point 2-fold dilution series with a starting concentration of 20 μM. Each time series was based on 6-time points (0, 1, 5, 10, 20, and 30 min for NO66 and 0, 1, 3, 5, 7, and 10 min for MINA53). […] Reactions were stopped by the addition of 5 μL of 10% (v/v) formic acid. The first four reaction data points (starting with the 1 min time point) were used for kinetic analysis.

[2] = substrate: CC[C@H](C)[C@H](NC(=O)[C@H](Cc1c[nH]cn1)NC(=O)[C@H](CCC(N)=O)NC(=O)[C@H](Cc1c[nH]cn1)NC(=O)[C@H](CC(N)=O)NC(=O)CNC(=O)CNC(=O)CNC(=O)[C@H](Cc1ccccc1)NC(=O)[C@@H]1CCCN1C(=O)[C@H](Cc1c[nH]cn1)NC(=O)[C@H](CCC(=O)O)NC(=O)[C@@H](NC(=O)[C@@H]1CCCN1C(=O)[C@@H](N)CC(N)=O)C(C)C)C(=O)NCC(=O)N[C@@H](CCCCN)C(=O)N1CCC[C@H]1C(=O)N[C@@H](CO)C(=O)N[C@H](C(=O)O)[C@@H](C)O; test: as above; assay type: biochemical; conditions: other: 2OG, Fe(II): NO66 (Ser183-Asn641), n = 4; peptide: NO66 (Gln116-Asn641), n = 3; means ± 95% confidence
Experimental: as §1, §2

| Protein | Km [1] [µM] | Vmax [1] [µM/min] | Km [2] [µM] | Vmax [2] [µM/min] |
| --- | --- | --- | --- | --- |
| MINA53 (Homo sapiens) (protein) MPKKAKPTGSGKEEGPAPCKQMKLEAAGGPSALNFDSPSSLFESLISPIKTETFFKEFWEQKPLLIQRDDPALATYYGSLFKLTDLKSLCSRGMYYGRDVNVCRCVNGKKKVLNKDGKAHFLQLRKDFDQKRATIQFHQPQRFKDELWRIQEKLECYFGSLVGSNVYITPAGSQGLPPHYDDVEVFILQLEGEKHWRLYHPTVPLAREYSVEAEERIGRPVHEFMLKPGDLLYFPRGTIHQADTPAGLAHSTHVTISTYQNNSWGDFLLDTISGLVFDTAKEDVELRTGIPRQLLLQVESTTVATRRLSGFLRTLADRLEGTKELLSSDMKKDFIMHRLPPYSAGDGAELSTPGGKLPRLDSVVRLQFKDHIVLTVLPDQDQSDEAQEKMVYIYHSLKNSRETHMMGNEEETEFHGLRFPLSHLDALKQIWNSPAISVKDLKLTTDEEKESLVLSLWTECLIQVV | 10.5 ± 5.5 | 0.36 ± 0.1 | – | – |
| NO66 (Homo sapiens) (protein) MDGLQASAGPLRRGRPKRRRKPQPHSGSVLALPLRSRKIRKQLRSVVSRMAALRTQTLPSENSEESRVESTADDLGDALPGGAAVAAVPDAARREPYGHLGPAELLEASPAARSLQTPSARLVPASAPPARLVEVPAAPVRVVETSALLCTAQHLAAVQSSGAPATASGPQVDNTGGEPAWDSPLRRVLAELNRIPSSRRRAARLFEWLIAPMPPDHFYRRLWEREAVLVRRQDHTYYQGLFSTADLDSMLRNEEVQFGQHLDAARYINGRRETLNPPGRALPAAAWSLYQAGCSLRLLCPQAFSTTVWQFLAVLQEQFGSMAGSNVYLTPPNSQGFAPHYDDIEAFVLQLEGRKLWRVYRPRVPTEELALTSSPNFSQDDLGEPVLQTVLEPGDLLYFPRGFIHQAECQDGVHSLHLTLSTYQRNTWGDFLEAILPLAVQAAMEENVEFRRGLPRDFMDYMGAQHSDSKDPRRTAFMEKVRVLVARLGHFAPVDAVADQRAKDFIHDSLPPVLTDRERALSVYGLPIRWEAGEPVNVGAQLTTETEVHMLQDGIARLVGEGGHLFLYYTVENSRVYHLEEPKCLEIYPQQADAMELLLGSYPEFVRVGDLPCDSVEDQLSLATTLYDKGLLLTKMPLALN | – | – | 19.11 ± 6.3 | 0.34 ± 0.05 |
